Holding throughout (conditions): glycan lost; control: wild type
Data set [1] is described as follows: Western blot of Ni-NTA-concentrated conditioned medium. (Immunoblotting shows a protein as a band on a membrane.)
A short description of data set [2]: Immunofluorescence co-staining with Golgi marker GRASP65.
Data set [3] can be described thus: Western blot of cell lysates.

B1: R-spondin1 (RSPO1): N137Q (protein)
parent chain: MRLGLCVVALVLSWTHLTISSRGIKGKRQRRISAEGSQACAKGCELCSEVNGCLKCSPKLFILLERNDIRQVGVCLPSCPPGYFDARNPDMNKCIKCKIEHCEACFSHNFCTKCKEGLYLHKGRCYPACPEGSSAANGTMECSSPAQCEMSEWSPWGPCSKKQQLCGFRRGSEERTRRVLHAPVGDHAACSDTKETRRCTVRRVPCPEGQKRRKGGQGRRENANRNLARKESKEAGAGSRRRKGQQQQQQQGTVGPLTSAGPA
On to B1, for which the expression_or_secretion result in data set [1] and in data set [3] was “increases” throughout. The localisation_or_trafficking result in data set [2] is “no change”.
